In US11325966:

Columns and labels:
Experiment in all cases: cell-based or functional assay
[1] = biological target: HIV-1 envelope (Env) of pseudovirus Du422.1 (HIV-1)
[2] = biological target: HIV-1 envelope (Env) of pseudovirus Ce1172_H1 (HIV-1)
[3] = biological target: HIV-1 envelope (Env) of pseudovirus SC422661.8 (HIV-1)
[4] = biological target: HIV-1 envelope (Env) of pseudovirus 6240_08_TA5_4622 (HIV-1)
[5] = biological target: HIV-1 envelope (Env) of pseudovirus Ce2060_G9 (HIV-1)
[6] = biological target: HIV-1 envelope (Env) of pseudovirus Ce0393_C3 (HIV-1)

BG1 (antibody)
IC50 in TZM-bl assay [1]: 1.8 µg/mL
IC80 in TZM-bl assay [1]: 13.7 µg/mL
IC50 in TZM-bl assay [2]: > 30 µg/mL
IC80 in TZM-bl assay [2]: > 30 µg/mL
IC50 in TZM-bl assay [3]: > 30 µg/mL
IC80 in TZM-bl assay [3]: > 30 µg/mL
IC50 in TZM-bl assay [4]: > 30 µg/mL
IC80 in TZM-bl assay [4]: > 30 µg/mL
IC50 in TZM-bl assay [5]: > 30 µg/mL
IC80 in TZM-bl assay [5]: > 30 µg/mL
IC50 in TZM-bl assay [6]: > 30 µg/mL
IC80 in TZM-bl assay [6]: > 30 µg/mL
